We go through one molecule from US20210292426A1.

Assay [1] deals with human CD40 expressed on cells (human) (UniProt P25942). Nature of the assay: flow cytometry, Raji cells. (Flow cytometry measures light scatter and fluorescence of single cells or particles in a stream.)
Assay [2] has the same target. Kind of assay: flow cytometry, primary human B cells.
Assay [3] has as its target human CD40 extracellular domain with C-terminal His-AviTag (human) (UniProt P25942). Nature of the assay: SPR (Biacore), antibody captured, CD40 ECD analyte.

B1: P1AD4470 (CD40 IgG1, control) (antibody, from a related filing, V domains shown)
VH: EVQLVESGGGLVQPGGSLRLSCAASGYSFTGYYIHWVRQAPGKGLEWVARVIPNAGGTSYNQKFKGRFTLSVDNSKNTAYLQMNSLRAEDTAVYYCAREGIYWWGQGTLVTVSS
VL: DIQMTQSPSSLSASVGDRVTITCRSSQSLVHSNGNTFLHWYQQKPGKAPKLLIYTVSNRFSGVPSRFSGSGSGTDFTLTISSLQPEDFATYFCSQTTHVPWTFGQGTKVEIKR
The term EC50 denotes the concentration giving half of the maximal effect. Higher therefore signals a need for much substance. One may read the Kd as the equilibrium constant for the complex coming apart. Read a high Kd as weaker binding. Usually koff stands for the rate constant with which the complex falls apart. Low values mean slow dissociation, high ones fast dissociation. By kon is commonly meant the rate constant with which the complex forms. The molecule B1 gave a half-maximal effective concentration (EC50) in assay [1] of 0.09 µg/mL. The molecule also had a 50% effective concentration (EC50) in assay [2] of 0.333 nM. In assay [3], this molecule registered a Kd of 4.6 nM, a koff of 0.00781 s⁻¹ and a kon of 1.69e+06 M⁻¹ s⁻¹.
